In article PMC11367651:

Columns and labels:
Settings in all cases: reference: unphosphorylated MAP2c; sites Y67
[1] = target: Grb2 (growth factor receptor-bound protein 2) SH2 domain, 57-158 (UniProt P62993); experiment: 1H,15N HSQC titration of 15N-Grb2-SH2 with MAP2c
[2] = target: Grb2 (growth factor receptor-bound protein 2) SH2 domain, 57-158 (UniProt P62993); experiment: NMR HNCO chemical shift perturbation of MAP2c
[3] = target: Grb2 (growth factor receptor-bound protein 2) SH2 domain, 57-158 (UniProt P62993); experiment: NMR HNCO peak broadening of labeled MAP2c

KD [1]: gained; reference No significant CCSP | binding against the reference [2]: gained | binding against the reference [3]: stronger
Substance: MAP2c (microtubule-associated protein 2c) (from UniProt P15146) Fyn-phosphorylated MAP2c
